Patent US20140342918

system: Vesicular stomatitis virus (whole virion) (Vesicular stomatitis virus)

Going from “TCCTCTGACTGTAACCACGCAGCCACCATACTGTCCCGTTTGCCCCCGCCGATTCCGTCGGCTTCTGGACTACCTATGC [SwAp11]” to “CTCCTCTGACTGTAACCACGTACCGCCCGTGACCCTCACATCCCTCCTCTGTTCTCCGCGGGCTTCTGGACTACCTATGC [SwAp10]”, the binding signal (ohm (RCTV-RCTB)) rises from 373 to 3720.

Compared with “CTCCTCTGACTGTAACCACGTACCACCCGTGGCCCTCACATCCCTCCTCTGTTCTCCGCGGGCTTCTGGACTACCTATGC [SwAp7]”, “CTCCTCTGACTGTAACCACGTACCACCCGTGACCCTCACATCCCTCCTCTGTTCTCCGCGGGCTTCTGGACTACCTATGC [SwAp5]” is lower in binding signal (ohm (RCTV-RCTB)): 1770 for the first, 838 for the second.

First: CTCCTCTGACTGTAACCACGTGCCCCCTCCATCCCGAGTAACCTACGTCCATGTCTCGCTGGCTTCTGGACTACCTATGC [SwAp4]
Second: CTCCTCTGACTGTAACCACGTACCACCCGTGGCCCTCACATCCCTCCTCTGTTCTCCGCGGGCTTCTGGACTACCTATGC [SwAp9]
The binding signal (ohm (RCTV-RCTB)) of the first is lower: 955 for the first, 1180 for the second.

First: CTCCTCTGACTGTAACCACGTACCACCCTTGACCCTCACATCCCTCCTCTGTTCTCCGCGGGCTTCTGGACTACCTATGC [SwAp14]
Second: CTCCTCTGACTGTAACCACGTACCACCCGTGACCCTCACATCCCTCCTCTGTTCTCCGCGGGCTTCTGGACTACCTATGC [SwAp13]
The binding signal (ohm (RCTV-RCTB)) of the first is lower: 709 for the first, 1980 for the second.

Compared with “CTCCTCTGACTGTAACCACGGCACCCCGAGGCAATTTCGCGCATAGTTCATCCTGTTTGGGGCTTCTGGACTACCTATGC [SwAp15]”, “CTCCTCTGACTGTAACCACGNNNNNNNNNNNNNNNNNNNNNNNNNNNNNNNNNNNNNNNGGCTTCTGGACTACCTATGC [Pool 10]” is lower in binding signal (ohm (RCTV-RCTB)): 930 for the first, 182 for the second.

First: CTCCTCTGACTGTAACCACGTACCACCCGTGACCCTCACATCCCTCCTCTGACGTAACCACGCGGGCTTCTGGACTACCTATGC [SwAp8]
Second: CTCCTCTGACTGTAACCACGTGGCACTGTTGTCATCACTGTCCCCCCCTAACTCGTCCGTGGCTTCTGGACTACCTATGC [SwAp6]
The binding signal (ohm (RCTV-RCTB)) of the first is higher: 1680 for the first, 1290 for the second.

Going from “CTCCTCTGACTGTAACCACGTGCCCCCTCCATCCCGAGTAACCTACGTCCATGTCTCGCTGGCTTCTGGACTACCTATGC [SwAp3]” to “CTCCTCTGACTGTAACCACGTACCACCCGTGACCCTTACATCCCTCCTCTGTTCTCCGCGGGCTTCTGGACTACCTATGC [SwAp12]”, the binding signal (ohm (RCTV-RCTB)) rises from 803 to 2180.

Going from “CTCCTCTGACTGTAACCACGCGCCCTCAGAACTTTTGTATCCGAACACCTGCATCGTCCGGGCTTCTGGACTACCTATGC [SwAp1]” to “CTCCTCTGACTGTAACCACGTACCACCCGTGACGCGCACATCCCTCCTCTGTTCTCCGCGGGCTTCTGGACTACCTATGC [SwAp2]”, the binding signal (ohm (RCTV-RCTB)) rises from 1040 to 1420.
